Measured values reported in paper PMC1869045 (Journal of thrombosis and haemostasis : JTH, 2007).

Target: the molecule itself
Assay: FRET or BRET

B1: GPVI BRET pair (GPVI-GFP and GPVI-luciferase) (receptor, UniProt Q9HCN6 21-339, looked up)
chain: QSGPLPKPSLQALPSSLVPLEKPVTLRCQGPPGVDLYRLEKLSSSRYQDQAVLFIPAMKRSLAGRYRCSYQNGSLWSLPSDQLELVATGVFAKPSLSAQPGPAVSSGGDVTLQCQTRYGFDQFALYKEGDPAPYKNPERWYRASFPIITVTAAHSGTYRCYSFSSRDPYLWSAPSDPLELVVTGTSVTPSRLPTEPPSPVAEFSEATAELTVSFTNEVFTTETSRSITASPKESDSPAGPARQYYTKGNLVRICLGAVILIILAGFLAEDWHSRRKRLRHRGRAVQRPLPPLPPLPLTRKSNGGQDGGRQDVHSRGLCS
- stoichiometry N: 2
